# Measured values taken from the supplement of paper PMC5998384.
# Legend:
# HeLa Kyoto [1] = test: melting temperature (median over replicates), in situ; higher = more thermally stable
# HeLa Kyoto [2] = test: solubility change mitosis vs G1/S (difference of NP-40 vs SDS log2 ratios) (log2 ratio difference); higher = more soluble in mitosis
# HeLa Kyoto [3] = test: thermal stability score vs G1/S (z-score of summed log2 fold changes over temperatures); higher = more thermally stable than in G1/S
# HeLa Kyoto [4] = test: solubility in G1/S (NP-40 vs SDS abundance) (log2 ratio); higher = more soluble; details: cell cycle stage: G1/S
# [5] = cell cycle stage: early G1 (4.5 h after nocodazole release)
# 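Wherever melting temperature (median over replicates), in situ is given: HeLa Kyoto cells synchronized by double thymidine or nocodazole block, proteins quantified by TMT10plex mass spectrometry, three independent biological replicates.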
# 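Wherever solubility change mitosis vs G1/S (difference of NP-40 vs SDS log2 ratios) is given: synchronized HeLa Kyoto cells (double thymidine block for G1/S, nocodazole release for mitosis), protein amounts in NP-40 versus SDS lysates quantified by mass spectrometry, three biological replicates.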
# 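Wherever solubility in G1/S (NP-40 vs SDS abundance) is given: HeLa Kyoto cells arrested at G1/S by double thymidine block, proteins quantified by TMT10plex mass spectrometry in mild NP-40 versus SDS extracts, three biological replicates.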
# 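Wherever thermal stability score vs G1/S (z-score of summed log2 fold changes over temperatures) is given: synchronized HeLa Kyoto cells, proteins quantified by TMT10plex mass spectrometry, three biological replicates, mitosis taken 0.5 h after nocodazole release, G1/S directly after double thymidine block.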
Sequence,melting temperature (HeLa Kyoto [1]; cell cycle stage: G1/S) [°C],melting temperature (HeLa Kyoto [1]; cell cycle stage: mitosis) [°C],solubility change mitosis (log2) (HeLa Kyoto [2]),thermal stability score (HeLa Kyoto [3]; [5]),thermal stability score (HeLa Kyoto [3]; cell cycle stage: mitosis),solubility in G1/S (log2) (HeLa Kyoto [4])
MATERSRSAMDSPVPASMFAPEPSSPGAARAAAAAARLHGGFDSDCSEDGEALNGEPELDLTSKLVLVSPTSEQYDSLLRQMWERMDEGCGETIYVIGQGSDGTEYGLSEADMEASYATVKSMAEQIEADVILLRERQEAGGRVRDYLVRKRVGDNDFLEVRVAVVGNVDAGKSTLLGVLTHGELDNGRGFARQKLFRHKHEIESGRTSSVGNDILGFDSEGNVVNKPDSHGGSLEWTKICEKSTKVITFIDLAGHEKYLKTTVFGMTGHLPDFCMLMVGSNAGIVGMTKEHLGLALALNVPVFVVVTKIDMCPANILQETLKLLQRLLKSPGCRKIPVLVQSKDDVIVTASNFSSERMCPIFQISNVTGENLDLLKMFLNLLSPRTSYREEEPAEFQIDDTYSVPGVGTVVSGTTLRGLIKLNDTLLLGPDPLGNFLSIAVKSIHRKRMPVKEVRGGQTASFALKKIKRSSIRKGMVMVSPRLNPQASWEFEAEILVLHHPTTISPRYQAMVHCGSIRQTATILSMDKDCLRTGDKATVHFRFIKTPEYLHIDQRLVFREGRTKAVGTITKLLQTTNNSPMNSKPQQIKMQSTKKGPLTKRDEGGPSGGPAVGAPPPGDEASSVGAGQPAASSNLQPQPKPSSGGRRRGGQRHKVKSQGACVTPASGC [GTPBP1],51.1,50.7,-0.0833,1.01,0.553,0.0683
MKPDETPMFDPSLLKEVDWSQNTATFSPAISPTHPGEGLVLRPLCTADLNRGFFKVLGQLTETGVVSPEQFMKSFEHMKKSGDYYVTVVEDVTLGQIVATATLIIEHKFIHSCAKRGRVEDVVVSDECRGKQLGKLLLSTLTLLSKKLNCYKITLECLPQNVGFYKKFGYTVSEENYMCRRFLK [GNPNAT1],56.2,57.5,-0.0779,-0.0383,-1.14,0.222
MLCSLLLCECLLLVAGYAHDDDWIDPTDMLNYDAASGTMRKSQAKYGISGEKDVSPDLSCADEISECYHKLDSLTYKIDECEKKKREDYESQSNPVFRRYLNKILIEAGKLGLPDENKGDMHYDAEIILKRETLLEIQKFLNGEDWKPGALDDALSDILINFKFHDFETWKWRFEDSFGVDPYNVLMVLLCLLCIVVLVATELWTYVRWYTQLRRVLIISFLFSLGWNWMYLYKLAFAQHQAEVAKMEPLNNVCAKKMDWTGSIWEWFRSSWTYKDDPCQKYYELLLVNPIWLVPPTKALAVTFTTFVTEPLKHIGKGTGEFIKALMKEIPALLHLPVLIIMALAILSFCYGAGKSVHVLRHIGGPESEPPQALRPRDRRRQEEIDYRPDGGAGDADFHYRGQMGPTEQGPYAKTYEGRREILRERDVDLRFQTGNKSPEVLRAFDVPDAEAREHPTVVPSHKSPVLDTKPKETGGILGEGTPKESSTESSQSAKPVSGQDTSGNTEGSPAAEKAQLKSEAAGSPDQGSTYSPARGVAGPRGQDPVSSPCG [CLCC1],56,58.6,-0.123,-0.638,1.19,-0.212
MLPNTGRLAGCTVFITGASRGIGKAIALKAAKDGANIVIAAKTAQPHPKLLGTIYTAAEEIEAVGGKALPCIVDVRDEQQISAAVEKAIKKFGGIDILVNNASAISLTNTLDTPTKRLDLMMNVNTRGTYLASKACIPYLKKSKVAHILNISPPLNLNPVWFKQHCAYTIAKYGMSMYVLGMAEEFKGEIAVNALWPKTAIHTAAMDMLGGPGIESQCRKVDIIADAAYSIFQKPKSFTGNFVIDENILKEEGIENFDVYAIKPGHPLQPDFFLDEYPEAVSKKVESTGAVPEFKEEKLQLQPKPRSGAVEETFRIVKDSLSDDVVKATQAIYLFELSGEDGGTWFLDLKSKGGNVGYGEPSDQADVVMSMTTDDFVKMFSGKLKPTMAFMSGKLKIKGNMALAIKLEKLMNQMNARL [HSDL2],51.5,52.5,-0.109,-0.828,0.589,0.296
MVDLTQVMDDEVFMAFASYATIILSKMMLMSTATAFYRLTRKVFANPEDCVAFGKGENAKKYLRTDDRVERVRRAHLNDLENIIPFLGIGLLYSLSGPDPSTAILHFRLFVGARIYHTIAYLTPLPQPNRALSFFVGYGVTLSMAYRLLKSKLYL [MGST1],56.8,58,-0.17,0.0202,-1.77,-0.321
